According to article PMC3545015:

T1: Pot1pC (198-339 V199D) (Schizosaccharomyces pombe, UniProt O13988 198-339, V199D)
T1 sequence: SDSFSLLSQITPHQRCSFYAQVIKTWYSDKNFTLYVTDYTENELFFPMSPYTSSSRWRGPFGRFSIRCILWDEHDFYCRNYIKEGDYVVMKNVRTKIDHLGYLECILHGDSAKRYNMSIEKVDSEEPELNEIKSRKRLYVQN


These binders were tested against T1, Pot1pC (198-339 V199D) (assay: ITC).
With GGATACGGT (ssDNA) [T3A] the Kd was 37 nM. With GGTTACGCT (ssDNA) [G8C] the Kd was 22 nM. GGTAACGGT (ssDNA) [T4A] gave a Kd of 21 nM. For GGTTAGGGT (ssDNA) [C6G], the Kd was 6 nM. With GGTTACGGT (ssDNA) [9mer] the Kd was 24 nM. In the case of GGTTTCGGT (ssDNA) [A5T], the Kd is reported as 63 nM.

What follows are binders tested against T1, Pot1pC (198-339 V199D) (assay: X-ray crystal structure).
GCTTACGGT (ssDNA) [G2C]: binds.
